Target: protein kinase CK2 catalytic subunit α (human) (UniProt P68400)
Sequence (P68400 whole entry): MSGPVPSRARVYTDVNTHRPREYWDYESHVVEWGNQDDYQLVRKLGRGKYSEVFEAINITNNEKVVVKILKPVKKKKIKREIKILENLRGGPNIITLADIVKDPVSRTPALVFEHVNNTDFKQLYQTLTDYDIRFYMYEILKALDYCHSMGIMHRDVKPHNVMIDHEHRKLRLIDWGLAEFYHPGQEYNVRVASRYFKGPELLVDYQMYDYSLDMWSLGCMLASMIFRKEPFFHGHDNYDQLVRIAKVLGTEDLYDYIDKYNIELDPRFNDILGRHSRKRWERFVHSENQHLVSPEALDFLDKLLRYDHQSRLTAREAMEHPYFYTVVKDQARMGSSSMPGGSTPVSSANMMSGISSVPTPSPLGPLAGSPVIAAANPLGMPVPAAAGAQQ

Chain of β-peptide(181–203) (P67870 181-203): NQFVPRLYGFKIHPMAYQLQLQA

Kd: 8.45 µM
Substance: β-peptide(181–203) (from UniProt P67870 181-203)
